Legend:
[1] = test system: Rev (D36) (HIV-1, SBBC subject D36); test: EMSA; settings: 10 mM HEPES/KOH pH 7.6, 150 mM KCl, 2 mM MgCl2, 0.5 mM EGTA, 1 mM DTT, 20% glycerol, 3.2 ug E. coli tRNA in 10 ul; excess RNA, protein 0-0.50 uM; 10 min on …
[2] = test system: Rev (C64) (HIV-1, SBBC subject C64); test: EMSA; settings: 10 mM HEPES/KOH pH 7.6, 150 mM KCl, 2 mM MgCl2, 0.5 mM EGTA, 1 mM DTT, 20% glycerol, 3.2 ug E. coli tRNA in 10 ul; excess RNA, protein 0-0.50 uM; 10 min on …

With RRE riboprobe the binding signal (% reduction vs NL4-3 Rev) [1] was 90 and the binding signal (% reduction vs NL4-3 Rev) [2] was 90.

Source: publication PMC1933581
